Measured values reported in patent publication US20230121197A1, “ANTIBODIES SPECIFICALLY BINDING THE CARBOXYMETHYLATED CATALYTIC SUBUNIT OF PROTEIN PHOSPHATASE 2A” (Medizinische Universität Wien, priority 2020, published 2023).

Legend:
[1] = molecular target: PP2Ac C-terminal peptide L309, ac-…-OH (unmodified) (human); assay: ELISA, peptide coated at 2 µg/ml, antibody 1 µg/ml
[2] = molecular target: PP2Ac C-terminal peptide meL309, ac-…-CH3 (α-carboxymethylated) (human); assay: ELISA, peptide coated at 2 µg/ml, antibody 1 µg/ml, normalized, N=4
[3] = molecular target: PP2Ac C-terminal peptide pT304-meL309, ac-HVTRRpTPDYFL-CH3 (human); assay: as above
[4] = molecular target: PP2Ac C-terminal peptide meL309, ac-…-CH3 (α-carboxymethylated) (human); assay: ELISA, peptide coated at 2 µg/ml, antibody 1 µg/ml, normalized, N=3
[5] = molecular target: PP2Ac C-terminal peptide pY307-meL309, ac-HVTRRTPDpYFL-CH3 (human); assay: as above
[6] = molecular target: PP2Ac C-terminal peptide pY307-meL309, ac-HVTRRTPDpYFL-CH3 (human); assay: ELISA, 4-fold dilution series of coated peptide, normalized, N=3
[7] = test system: α-carboxymethylation of PP2Ac; assay: H358 xenograft tumors, single dose DT-061 time-course: methyl-PP2Ac by IHC and western blot with 7C10-C5; assay type: in vivo, Balb/c nu/nu mice
Protocol: Next, the immunohistochemical analysis of xenograft tumors was performed. In brief, five micron sections from formalin-fixed paraffin-embedded (FFPE) specimens were deparaffinized in Histo-Clear and ethanol, exposed to 0.3% hydrogen peroxide to block endogenous peroxidase activity, and incubated for antigen retrieval with a citrate-based antigen unmasking solution (H-3300, Vector Laboratories) in a pressure cooker. Tumor sections were blocked with Mouse Ig Blocking Reagent (BMK-2202, Vector Laboratories), and incubated with anti-carboxymethyl PP2Ac specific antibody (7C10-C5) or an antibody recognizing total PP2Ac (ab106262) at 4° C. for two nights. Washes were performed in PBS. Slides were subsequently developed using secondary anti-mouse immunoglobulins/HRP (K1497, Agilent), DAB peroxidase substrate as the chromagen, and hematoxylin for counterstaining nuclei. Slides were sealed, and randomized for subsequent blinded review. Two independent researchers scored the level of carboxymethylated PP2Ac staining (with 7C10-C5) in one section per tumor (min. 6 tumors per treatment/control group). […] Scores from 0-2 are considered low staining, 2-4 as moderate, and 4-6 as high intensity staining. Based on these scores the data was plotted as the percentage of slides from each time point that fell into each group (FIG. 14I).

[8] = test system: c-MYC; assay: H358 xenograft tumors, single dose DT-061 time-course: c-MYC IHC; assay type: in vivo, Balb/c nu/nu mice; conditions: single dose DT-061
[9] = mouse, in vivo, 5 mg/kg
[10] = molecular target: PP2Ac C-terminal peptide meL309, ac-…-CH3 (α-carboxymethylated) (human); assay: ELISA, peptide coated at 2 µg/ml, antibody 1 µg/ml, values normalized to L309, N=6
[11] = molecular target: PP2Ac C-terminal peptide pT304-L309, ac-HVTRRpTPDYFL-OH (human); assay: as above
[12] = molecular target: PP2Ac C-terminal peptide pT304-meL309, ac-HVTRRpTPDYFL-CH3 (human); assay: as above
[13] = molecular target: PP2Ac C-terminal peptide pY307-meL309, ac-HVTRRTPDpYFL-CH3 (human); assay: as above
[14] = molecular target: PP2Ac peptides L309, Y307F, pY307, meL309 crosslinked to BSA (Homo sapiens, UniProt P67775); assay: Western blot of BSA crosslinked PP2Ac peptides (scFv 7C10-C5); assay type: binding; conditions: 100 ng BSA crosslinked peptides
Protocol: 100 ng of BSA crosslinked with peptides (L309: CGEPHVTRRTPDYFL (SEQ ID NO:49), Y307F: CGEPHVTRRTPDFFL (SEQ ID NO.50), pY307: CGEPHVTRRTPDpYFL (SEQ ID NO:51) or meL309: CGEPHVTRRTPDYFL-CH3) (SEQ ID NO:49) was separated by 10% SDS-PAGE and transferred to nitrocellulose membrane (0.2 μm, GE Healthcare). Of note, the Y307F peptide cannot be phosphorylated at position 307 due to the presence of a phenylalanine. The membranes were blocked in 3% non-fatty dry milk (NFDM) in TBS-Tween for 1 h at RT and incubated with single clone hybridoma cell culture supernatant, clone 7C10-C5 diluted 1:100 in 0.5% NFDM in TBS-T (7C10 X63), recombinant single chain variable fragment of antibody 7C10-C5, undiluted (7C10 scFvs), recombinant bivalent single chain variable fragment 7C10-C5, undiluted (7C10 bi-scFvs) or single clone hybridoma cell culture supernatant, clone 1D7 (binding to non-carboxymethylated PP2Ac) 1:100 in 0.5% NFDM in TBS-T o/n at 4° C. After washing 3×5 min in TBS-T, blots incubated with recombinant antibodies were incubated with mouse anti-HA monoclonal antibody 16B12 (recognizing the hemagglutinin (HA) tag on the recombinant antibody), 1:10000 in 0.5% NFDM in TBS-T 2 h at room temperature. After washing 3×5 min in TBS-T, incubation with anti-mouse-HRP coupled secondary antibody for 1 h at RT and 3×10 min washes in TBS-T was performed. […] Signals were detected by exposure of X-ray films. […]

[15] = molecular target: T1, C-terminal PP2Ac peptides L309, Y307F, pY307, meL309 (Homo sapiens, UniProt P67775); assay: ELISA with CGEPHVTRRTPDYFL peptides free or linked to BSA (scFv and recombinant 7C10-C5); assay type: binding; conditions: for recognition of meL309 versus non-carboxymethylated peptides: peptides free or linked to BSA
T1 construct: coated with C-terminal PP2Ac peptides either free or linked to BSA; BSA (carrier)
Protocol: Nunc Medisorp 96-well ELISA flat-bottom plates were coated with C-terminal PP2Ac peptides either free or linked to BSA. Specifically, the peptides were: unmodified L309 (CGEPHVTRRTPDYFL) (SEQ ID NO:49), Y307F (CGEPHVTRRTPDFFL) (SEQ ID NO:50), pY307 (CGEPHVTRRTPDpYFL) (SEQ ID NO:51) or carboxymethylated meL309 (CGEPHVTRRTPDYFL-CH3) (SEQ ID NO:49), on the ELISA plate at 8 μg/ml in TBS (free) or 1 μg/ml in TBS (linked to BSA) at 4° C. overnight. After washing twice with TBS, the wells were incubated with 2% BSA in TBS for 1 h at RT. After washing once with TBS, the wells were incubated with single clone hybridoma cell culture supernatant, clone 7C10-C5 1:50 (7C10 X63), recombinant single chain variable fragment of antibody 7C10-C5, undiluted (7C10 scFvs), or recombinant bivalent single chain variable fragment of antibody 7C10-C5, undiluted (7C10 bi-scFvs). After washing 3× with TBS, wells incubated with recombinant antibodies were incubated with monoclonal antibody 16B12, 1:10000 (recognizing the hemagglutinin tag on the recombinant antibody) in 1% BSA TBS 1 h at room temperature. After washing 3× in TBS, incubation with anti-mouse-HRP coupled secondary antibody for 1 h at RT was performed. Bound antibodies were detected by colorimetric reaction with 3,3′,5,5′-Tetramethylbenzidine as substrate, and absorbance was measured at 450 nm. Values were normalized to meL309 which was arbitrarily set to 1. Average and standard deviation of N=3 experiments are shown.
Nunc Medisorp 96-well ELISA flat-bottom plates were coated with peptides either free or linked to BSA, L309 (CGEPHVTRRTPDYFL) (SEQ ID NO:49) or meL309 (CGEPHVTRRTPDYFL-CH3) (SEQ ID NO:49), on the ELISA plate at 0.5 μg/ml in TBS (free) or […] in TBS (linked to BSA) at 4° C. over night. After washing twice with TBS, the wells were incubated with 2% BSA in TBS for 1 h at RT. After washing once with TBS, the wells were incubated with single clone hybridoma cell culture supernatant, clone 7C10-C5 1:50 (7C10 X63), or recombinant antibody 7C10-C5 undiluted (rec 7C10). After washing 3× with TBS, incubation with anti-mouse-HRP coupled secondary antibody for 1 h at RT was performed. Bound antibodies were detected by colorimetric reaction with 3,3′,5,5′-Tetramethylbenzidine as substrate, and absorbance was measured at 450 nm. Values were normalized to meL309 incubated with 7C10 X63, which was arbitrarily set to 1. Average and standard deviation of N=3 experiments are shown (FIG. 30).

For “rabbit monoclonal antibody E155 (Abcam #ab32104 lot GR17965-24)”, the fold higher ELISA signal intensity than with the α-carboxymethylated counterpart (meL309) [1] was 4.7 to 8.2 fold, the fold-change of ELISA signal, L309 over meL309 [2] was 4.65 fold and the fold-change of ELISA signal, L309 over pT304-meL309 [3] was 50 fold. It also gave a fold-change of ELISA signal, meL309 over pT304-meL309 [3] of 10.7 fold, a fold-change of ELISA signal, pT304-L309 over pT304-meL309 [3] of 36.1 fold and a fold-change of ELISA signal, L309 over meL309 [4] of 8.2 fold. It also gave a fold-change of ELISA signal, pY307-L309 over pY307-meL309 [5] of 2.5 fold, a fold-change of ELISA signal, pY307-meL309 over meL309 [5] of 3.36 fold and an EC50 (read off the curve) [6] of 0.3 µg/mL.

With `O=S(=O)(N[C@@H]1CCC[C@H](N2c3ccccc3Oc3ccccc32)[C@H]1O)c1ccc(OC(F)(F)F)cc1` [DT-061] the “return of α-carboxymethylated PP2Ac to basal levels post treatment” value ([7]; single dose DT-061) was ≤ 12 h, the “α-carboxymethylated PP2Ac in xenograft tumors after treatment” value ([7]; single dose DT-061 (5 mg/kg), IHC with 7C10-C5) was “increase in α-carboxymethylated PP2Ac at early time points (one, two, and three hours)” and the “return of c-MYC to basal levels” value [8] was ≤ 6 h. For the same molecule, the “c-MYC in xenograft tumors after treatment” value ([8]; IHC) was “significant decrease of c-MYC at early time points (one, two, and three hours)” and the “half-life obtained from serum” value [9] was 6.3 h.

With “mouse monoclonal antibody 4B7 (SCBT, sc-13601, lot 0716)” the fold higher ELISA signal intensity than with the α-carboxymethylated counterpart (meL309) [1] was 8 fold, the fold-change of ELISA signal, L309 over meL309 [10] was 8.27 fold and the fold-change of ELISA signal, L309 over pT304-L309 [11] was 1.75 fold. The fold-change of ELISA signal, pT304-L309 over pT304-meL309 [12] was 7.39 fold and the fold-change of ELISA signal, pY307-L309 over pY307-meL309 [13] was 8.27 fold.

B1: monovalent scFv 7C10-C5: recombinant monovalent single chain variable fragment of antibody 7C10-C5 (SEQ ID NO:42) (protein)
scFv: MDMRVPAQLLGLLLLWLSGARCDVLMTQTPLSLPVSLGDQASISCRSSQSIVHSNGNTYLEWYLQKPGQSPKLLIYKVSNRFSGVPDRFSGSGSGTDFTLKINRVEAEDLGVYYCFQGSHVPWTFGGGTKLEIKSSGGGGSGGGGGGSSRSSLDVQLQESGPGLVKPSQSLSLTCSVTGYSITSGYYWNWIRQFPGNKLEWMGYISYDGSNNYNPSLKNRISITRDTSKNQFFLKLNSVTTEDTATYYCAGRFAYWGQGTLVTVSAAKTTPPSVTSGQAGQHHHHHHGAYPYDVPDYAS
modifications: recombinant monovalent scFv antibody
In the case of B1, the “recognition of meL309 versus non-carboxymethylated peptides” value [14] is reported as “specifically recognized the carboxymethylated meL309 peptide, but none of the non-carboxymethylated peptides” and the “recognition of meL309 versus non-carboxymethylated peptides” value [15] is reported as “specifically recognized the carboxymethylated meL309 peptide, but none of the non-carboxymethylated peptides”.

B2: bivalent scFv 7C10-C5: recombinant bivalent single chain variable fragment of antibody 7C10-C5 (SEQ ID NO:44) (protein)
scFv: MDMRVPAQLLGLLLLWLSGARCDVLMTQTPLSLPVSLGDQASISCRSSQSIVHSNGNTYLEWYLQKPGQSPKLLIYKVSNRFSGVPDRFSGSGSGTDFTLKINRVEAEDLGVYYCFQGSHVPWTFGGGTKLEIKSSGGGGSGGGGGGSSRSSLDVQLQESGPGLVKPSQSLSLTCSVTGYSITSGYYWNWIRQFPGNKLEWMGYISYDGSNNYNPSLKNRISITRDTSKNQFFLKLNSVTTEDTATYYCAGRFAYWGQGTLVTVSAAKTTPPSVGSGSGSGSGSGSGSGSGSGSGSGSGSGSGSDVLMTQTPLSLPVSLGDQASISCRSSQSIVHSNGNTYLEWYLQKPGQSPKLLIYKVSNRFSGVPDRFSGSGSGTDFTLKINRVEAEDLGVYYCFQGSHVPWTFGGGTKLEIKSSGGGGSGGGGGGSSRSSLDVQLQESGPGLVKPSQSLSLTCSVTGYSITSGYYWNWIRQFPGNKLEWMGYISYDGSNNYNPSLKNRISITRDTSKNQFFLKLNSVTTEDTATYYCAGRFAYWGQGTLVTVSAAKTTPPSVTSGQAGQHHHHHHGAYPYDVPDYAS
modifications: recombinant bivalent scFv antibody
With B2 the “recognition of meL309 versus non-carboxymethylated peptides” value [14] was “specifically recognized the carboxymethylated meL309 peptide, but none of the non-carboxymethylated peptides”, the “binding to meL309 peptide, bivalent versus monovalent scFv” value [15] was “bound stronger to the meL309 peptide than the monovalent scFv” and the “recognition of meL309 versus non-carboxymethylated peptides” value [15] was “specifically recognized the carboxymethylated meL309 peptide, but none of the non-carboxymethylated peptides”.
